{
  "source": "paper PMC3846833",
  "target": "recombinant myostatin (R&D Systems) (UniProt O14793)",
  "sequence (O14793 267-375)": "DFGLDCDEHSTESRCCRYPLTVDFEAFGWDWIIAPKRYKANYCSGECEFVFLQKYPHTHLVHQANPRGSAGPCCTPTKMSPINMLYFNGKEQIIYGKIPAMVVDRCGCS",
  "assay": "SPR; Biacore 3000, CM5 chip, about 2000 RU of ligand (ActRIIB-Fc or myostatin) amine-coupled by EDC/NHS; analyte 6.25-100 nM in HBS-EP (0.01 M HEPES pH 7.4, 0.15 M NaCl, 3 mM EDTA, 0.005% P20); 21°C, 30 µL/min; association 180 s, dissociation 300 s",
  "data": [
    {"substance": "recombinant putative mature sheep myostatin splice variant (rMSV, aa 275-321) (domain or fragment)", "values": [
      {"measurement": "Kd", "result": 0.0979, "unit": "nM"},
      {"measurement": "koff", "result": "4.32e-06", "unit": "s⁻¹"},
      {"measurement": "kon", "result": 44100, "unit": "M⁻¹ s⁻¹"}
    ]}
  ]
}
